The source of these data is paper PMC10703496.

As a reminder, the Kd is the equilibrium constant for the complex coming apart. Usually koff stands for the first-order rate constant of dissociation. Read a high koff as fast dissociation. The term kon denotes the rate constant with which the complex forms. A higher kon goes with faster complex formation. For orientation: stoichiometry N means the number of molecules, sites or subunits per partner or assembly.

Assay [1] deals with 6×His-tagged receptor-binding domain (RBD) of SARS-CoV-2 spike, Wuhan (SARS-CoV-2) (UniProt P0DTC2). Description: SPR.
Assay [2] deals with spike protein of live Wuhan SARS-CoV-2 (SARS-CoV-2) (UniProt P0DTC2).
Assay [3] deals with dimeric ACE2-albumin fusion: truncated human ACE2 (residues 18–740) fused to engineered human albumi (human) (UniProt Q9BYF1). Description: SEC.
The target of assay [4] is dimeric ACE2-albumin fusion: truncated human ACE2 (residues 18–740) fused to full-length wild-type human albumin (human) (UniProt Q9BYF1). Description: SEC.
Assay [5] deals with soluble His-tagged human neonatal Fc receptor (human) (UniProt P55899).
Sequence of soluble His-tagged human neonatal Fc receptor (human) (P55899 24-297, chain 1 of 2): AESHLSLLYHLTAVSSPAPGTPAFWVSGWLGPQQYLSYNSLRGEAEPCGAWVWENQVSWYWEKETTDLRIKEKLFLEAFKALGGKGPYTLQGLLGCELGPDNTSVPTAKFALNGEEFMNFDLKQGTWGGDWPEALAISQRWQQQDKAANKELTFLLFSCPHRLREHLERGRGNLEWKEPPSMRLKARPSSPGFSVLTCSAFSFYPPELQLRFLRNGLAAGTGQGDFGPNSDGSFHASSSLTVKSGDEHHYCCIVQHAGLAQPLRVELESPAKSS
Sequence of soluble His-tagged human neonatal Fc receptor (human) (P61769 21-119, chain 2 of 2, further chain): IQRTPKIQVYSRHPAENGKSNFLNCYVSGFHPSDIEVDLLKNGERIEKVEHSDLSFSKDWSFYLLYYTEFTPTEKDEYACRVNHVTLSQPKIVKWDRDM
Assay [6] deals with ACE2(18–740)-WT: truncated dimeric human ACE2 (residues 18–740) fused to the N-terminal end of full- (human) (UniProt Q9BYF1). Description: SPR.
Assay [7] has the same target. Description: SPR; pH 5.5. (In general: Surface plasmon resonance follows binding to a sensor surface in real time, without labels.)

Sequence of soluble His-tagged human neonatal Fc receptor (human FcRn-His) (P55899 24-297): as the sequence (P55899 24-297, chain 1 of 2) above
Sequence of soluble His-tagged human neonatal Fc receptor (human FcRn-His) (P61769 21-119): as the sequence (P61769 21-119, chain 2 of 2, further chain) above

In assay [1], “ACE2(18–615)-QMP: monomeric ACE2 peptidase domain (residues 18–615) fused to the N-terminal end of QMP human albumin (from UniProt Q9BYF1-1;P02768)” displayed a Kd of 108 nM, a koff of 0.026 s⁻¹ and a kon of 240000 M⁻¹ s⁻¹.

In assay [1], “ACE2(18–615)-WT: monomeric ACE2 peptidase domain (residues 18–615) fused to the N-terminal end of fu (from UniProt Q9BYF1-1;P02768)” gave a Kd of 327 nM, a koff of 0.0124 s⁻¹ and a kon of 38000 M⁻¹ s⁻¹.

Regarding “ACE2(18–740)-WT: truncated dimeric human ACE2 (residues 18–740) fused to the N-terminal end of full- (from UniProt Q9BYF1-1;P02768)”, in assay [1], the Kd worked out at 0.9 nM, the koff was determined as 0.00015 s⁻¹ and the kon stood at 166000 M⁻¹ s⁻¹. This substance also showed a Table S3: IC50 of live virus neutralization (Wuhan SARS-CoV-2 on Vero E6 cells) in assay [2] of 293 nM.

The substance “dimeric ACE2-albumin fusion: truncated human ACE2 (residues 18–740) fused to engineered human albumi (from UniProt Q9BYF1 18-740)” gave a stoichiometry N in assay [3] of 2.

With “dimeric ACE2-albumin fusion: truncated human ACE2 (residues 18–740) fused to full-length wild-type human albumin (from UniProt Q9BYF1;P02768)”, the stoichiometry N in assay [4] came out at 2. In addition, the plasma half-life after IV injection in human FcRn Tg32 mice in assay [5] was 26.4 h.

In assay [6], “soluble His-tagged human neonatal Fc receptor (human FcRn-His) (from UniProt P55899 24-297; P61769 21-119)” gave a kon of 60000 M⁻¹ s⁻¹. Further, in assay [7], the Kd came out at 102 nM and the koff worked out at 0.0061 s⁻¹.
